Results: US7749968B2, “Peptides for targeting the prostate specific membrane antigen” (The Johns Hopkins University, priority 2002, dated 2010)

Molecular target: T1, Tag-xPSM (Homo sapiens, UniProt Q04609)
T1 construct: made in house; host or cells: Sf-9 insect cells infected with recombinant baculovirus; protein harvested from the media
Test: Tag-xPSM phage display selection (agarose/cellulose), sequencing of selected phage
Format: binding
Description: 100 μl of S-protein agarose (2× in RPMI 1640+1% Fetal Bovine Serum (FBS) and 100 μl of CBind Resin (10 mg/ml in RPMI 1640+1% FBS) without fusion protein were used to negatively select the original phage display library. 2×10^11 plaque forming units (PFU) of 1.29×10^9 different sequence phage were incubated with each aliquot of resin for 1 hr at 37° C., while rotating. The S-tag agarose was pelleted and supernatant saved as the agarose counter-selected pool. The cellulose resin was transferred onto 200 μl of 9:1 dibutyl phthalate:cyclohexane and the resin pelleted through the organic phase. The aqueous supernatant was saved as the cellulose counter-selected pool. Each counter selected pool was then added to tag-xPSM agarose or cellulose resin and incubated for 1 hr at 37° C., while rotating. The tag-xPSM agarose was pelleted and washed three times in RPMI 1640+1% FBS. The agarose pellet was then saved for phage isolation. The Tag-xPSM cellulose was transferred onto 200 μl of 9:1 dibutyl phthalate:cyclohexane and the resin pelleted through the organic phase. The tube was then snap frozen in liquid nitrogen to isolate the resin pellet. Over 75% of Tag-xPSM remained bound to the cellulose resin through these conditions. The resulting phage-bound tag-xPSM agarose and tag-xPSM cellulose were then resuspended in 200 μl of log phage ER2738 cells and phage allowed to infect 1 hour at room temperature. A small aliquot was taken at this time to quantitate the number of phage bound per round of selection. The remaining PSMA bound phage was then amplified, tittered, and applied to the next round of phage display. There was only one counter-selection round, followed by a total of five positive selection rounds, applying between 10^10 to 10^11 PFU per round. The final round of selection included cross-selections, where selected phage pools from one PSMA background where applied to the other. Individual phage were isolated and sequenced from rounds three through five.
Individual phage plaques were amplified for 5 hours in ER2738 cells at 37° C. Amplified supernatant was incubated 1:1 with PEG/NaCl buffer (20% PEG 8000, 2.5 M NaCl) for 10 minutes at room temperature. Phage were microfuged 10 minutes at 20,000 g, 4° C. The phage pellet was suspended in 100 μl Iodide buffer (10 mM Tris-HCl, pH 8.0, 1 mM EDTA, 4M NaI). Single stranded DNA (ssDNA) was precipitated with 250 μl of 100% ethanol, pelleted, and washed in 70% ethanol. Each ssDNA pellet was suspended in 30 μl 10 mM Tris, pH 7.4. Each phage was sequenced using the Amersham DYE ET mix, by incubating 6 μl ssDNA, 1 μl of 5 μM-96 pill Sequencing Primer ([…]; SEQ ID NO:108), and 8 μl of DYE ET mix in a 96 well PCR plate and amplified by 30 cycles of 95° C. for 20 seconds, 50° C. for 15 seconds, and 60° C. for 1 minute. Sequencing reaction products were spun through G50-fine Sephadex column plates, prepared on Millipore-multiscreen plates. Products were sequenced and analyzed on the MegaBACE capillary sequencer. All sequences, minus the flanking cysteines, were aligned using the Baylor College of Medicine Clustal W1.8 Global Progressive Alignment (available online) with data presented by Boxshade 3.21 software (available online through the Swiss Institute for Bioinformatics).
2×10^11 plaque-forming units (PFU) of the library was incubated with each aliquot of resin for one hour at 37° C., while rotating. The S-tag agarose was pelleted and the supernatant saved as the agarose counter-selected pool. The cellulose resin was transferred onto a 9:1 ratio of dibutyl phthalate:cyclohexane and the resin centrifuged through the organic phase. The aqueous supernatant was saved as the cellulose counter-selected pool. Each counter selected pool was then added to tag-xPSM agarose or cellulose resin, respectively, and incubated for one hour at 37° C., while rotating (see FIG. 2). The Tag-xPSM agarose was pelleted, washed, and saved for phage isolation. […]

T1 sequence (Q04609 44-750 limits assumed): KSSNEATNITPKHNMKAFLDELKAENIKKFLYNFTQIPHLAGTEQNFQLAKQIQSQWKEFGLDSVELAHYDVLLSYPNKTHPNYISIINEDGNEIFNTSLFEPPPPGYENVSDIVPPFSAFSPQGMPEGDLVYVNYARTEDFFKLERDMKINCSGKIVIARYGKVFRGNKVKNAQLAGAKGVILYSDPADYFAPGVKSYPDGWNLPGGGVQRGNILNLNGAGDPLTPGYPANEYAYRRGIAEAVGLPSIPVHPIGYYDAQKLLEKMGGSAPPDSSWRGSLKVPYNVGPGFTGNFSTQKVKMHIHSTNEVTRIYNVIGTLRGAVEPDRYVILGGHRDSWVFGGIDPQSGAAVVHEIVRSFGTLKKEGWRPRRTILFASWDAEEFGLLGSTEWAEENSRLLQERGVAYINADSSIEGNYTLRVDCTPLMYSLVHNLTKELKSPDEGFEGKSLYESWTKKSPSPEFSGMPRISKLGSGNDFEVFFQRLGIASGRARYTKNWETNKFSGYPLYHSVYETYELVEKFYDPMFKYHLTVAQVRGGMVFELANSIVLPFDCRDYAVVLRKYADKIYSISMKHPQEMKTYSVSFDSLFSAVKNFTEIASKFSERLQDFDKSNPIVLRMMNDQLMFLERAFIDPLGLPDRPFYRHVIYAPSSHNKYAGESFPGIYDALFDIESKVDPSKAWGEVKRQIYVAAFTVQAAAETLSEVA

Row | Sequence | Number of times sequence was found, Round 3 (Agarose) | Number of times sequence was found, Round 4 (Agarose) | Number of times sequence was found, Round 5 (Agarose) | Number of times sequence was found, Round 3 (Cellulose) | Number of times sequence was found, Round 4 (Cellulose) | Number of times sequence was found, Round 5 (Cellulose)
1 | CSSHSTVHC [SEQ ID NO:7] | 0/0 | 0/0 | 0 | 0/0 | 0/0 | 1
2 | CTITSKRTC [SEQ ID NO:2] | 0 | 3/3 | 0 | 1 | 3/3 | 3
3 | CHTKHASHC [SEQ ID NO:6] | 0/0 | 0/0 | 0 | 0/0 | 0/0 | 1
4 | CPSVNTKQC [SEQ ID NO:9] | 0/0 | 0/0 | 0 | 0/0 | 0/0 | 1
5 | CQTPYDLRC [SEQ ID NO:10] | 0/0 | 0/0 | 0 | 0/0 | 0/0 | 1
6 | CSTRAPHLC [SEQ ID NO:5] | 0/0 | 0/0 | 0 | 0/0 | 0/0 | 1
7 | CTPLSPRYC [SEQ ID NO:12] | 0/0 | 0 | 0/0 | 0/0 | 1 | 0/0

The next lines start with the values.

Row | Number of times sequence was found, Round 3 (Agarose) | Number of times sequence was found, Round 4 (Agarose) | Number of times sequence was found, Round 5 (Agarose) | Number of times sequence was found, Round 3 (Cellulose) | Number of times sequence was found, Round 4 (Cellulose) | Number of times sequence was found, Round 5 (Cellulose) | Sequence
8 | 0/0 | 0 | 0/0 | 0/0 | 1 | 0/0 | CNKSSLGTC [SEQ ID NO:13]
9 | 0/0 | 0 | 0/0 | 0/0 | 1 | 0/0 | CKHSVSPSC [SEQ ID NO:18]
10 | 0/0 | 0 | 0/0 | 0/0 | 1 | 0/0 | CKPTNQHKC [SEQ ID NO:19]
11 | 0/0 | 0 | 0/0 | 0/0 | 1 | 0/0 | CDAVRYPVC [SEQ ID NO:20]
12 | 1 | 0/0 | 0/0 | 0 | 0/0 | 0/0 | CQFRHSAQC [SEQ ID NO:23]
13 | 1 | 0/0 | 0/0 | 0 | 0/0 | 0/0 | CPIMLSEPC [SEQ ID NO:26]
14 | 0/0 | 0 | 0/0 | 0/0 | 1 | 0/0 | CHTSLKTHC [SEQ ID NO:14]
